± gives the half width of the 95% confidence interval.
assay: folding stability dG unfold (combined trypsin and chymotrypsin); higher = more stable
In short: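 Only designs with AlphaFold2 dimer inter-PAE above 15 were retained; each was a mini-protein under 80 residues with no cysteine, in a PA-tagged cDNA display construct. After digestion with trypsin and chymotrypsin and sequencing, K50 was inferred by Bayesian fitting of counts, and unfolding free energy was derived per protease or combined against a sequence-predicted unfolded-state K50 and a shared folded-state K50.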

First: SAGMIEINNVTPNYVMIKIWNPDNGKKWEIPIQYERDNGKPYSKDKALEEIKDIAKEFYPDFDIEVEPVSAG [r5_293_TrROS]
Second: SAGGSAGGSAGGSKELTVLVVEKNEDGTLTVRKFKIELKDGELKIVEEEEKTVPLEELKSAGGSAGGSAGGS [r4_389_TrROS_Hall]
The “folding stability dG unfold” value of the first is lower: 0.41 ± 0.25 kcal/mol for the first, 2.04 ± 0.12 kcal/mol for the second.

Going from “SDDIKNMPFRITEIEPLPPGDPIPPGQRIRITIQMPDFPGQPFEFDIRVDPENGMIYMEMGGMPFEIPIKSA [r9_243_TrROS]” to “SAGGEWRKITVPIKYRFPPGESIDSIANELANLPGLKVEVNVEYEKDPDGRYYMEIPVEIEIPPGAPISAGG [r13_590_TrROS]”, the “folding stability dG unfold” value falls from 1.67 ± 0.15 kcal/mol to 0.576 ± 0.12 kcal/mol.

First: SAGMMKVRIKIEVTRVEYDEETGELKEETRTIEIPIEAESEEEAEELAKKLAEELPEEEVKIVEIEPLSAGG [r19_209_TrROS_Hall]
Second: SAGGSAGGSAGIEIHVMEDPDGRWWLMITIKVKYKVRNPEDGDPIFEFEVTYTIMIWLKASAGGSAGGSAGG [r17_124_TrROS]
The “folding stability dG unfold” value of the first is lower: 1.22 ± 0.22 kcal/mol for the first, > 6 kcal/mol for the second.

Going from “SGSLSIEFSSTEPSSPGSITLSKLFPEPEADRATHTIKLPNSTIELEFDSAEDLIKNVEKLLKELGNPGKSA [r9_258_JUSTAS]” to “SAGGSAMKVYKIKLEFENEETGKRVEIEAEVVEVDGELYLVMKAKVVDEETGEEKEIEIVIKLPKESAGGSA [r15_960_TrROS_Hall]”, the “folding stability dG unfold” value rises from 0.115 ± 0.12 kcal/mol to 2.31 ± 0.21 kcal/mol.

Going from “SAGGSAGGSAYELVIVGTPELALKLAKEFAEKNPESVANLKIEKITAALPVPFLSPDGIPESAGGSAGGSAG [r3_89_TrMRF]” to “SAGGGSSSTTTSTTTTTSTSIEPLPGDREVVVTTTTTTTTTTTTTTPPDGSSTSTTTTTTTTTTTVTLASAG [r5_428_JUSTAS]”, the “folding stability dG unfold” value rises from 0.0822 ± 0.24 kcal/mol to 1.93 ± 0.13 kcal/mol.

Going from “SAGGSAGGPEIEVRFPDGWYVKITVERPEDGKVTVKVEVYHPDPNGKPIPPETAKNLAKEFLNKSAGGSAGG [r6_235_TrROS]” to “SAGGSAGGSPAPDVTIEVKVTYDPETGALRIEVEATIPGGGKITIEYTIPPLDKIEIVGVKIESAGGSAGGS [r12_1029_TrMRF]”, the “folding stability dG unfold” value rises from 0.67 ± 0.11 kcal/mol to 3.6 ± 0.26 kcal/mol.

First: SAGGSAGGSAGVKVLKNPGDSLVTVVTETTVTKTTTDPEGNTTTTPVKVTTTTLLEVPLTSAGGSAGGSAGG [r17_103_JUSTAS]
Second: SPYFMFPIDDIKVEKERDPDDGKKTYEMRVEGPNGNPFRIEFNPKDGMIHIEFPPGMKLRPGDTFELTIRSA [r9_509_TrROS]
The “folding stability dG unfold” value of the first is lower: 0.279 ± 0.071 kcal/mol for the first, 1.85 ± 0.21 kcal/mol for the second.

Compared with “SAGGSAGGSAMKVRVKIKITRGSKEYEEEFILPEEEIEKLKEEIPEDYEVEIVDKEPLVLKSAGGSAGGSAG [r3_195_JUSTAS]”, “SAGGKTVVLEFDSVEDLKAALPPGAEVEIVVIREDGSKKTITVPAKDLKLELKPGEKYRVVIKVKPKKSAGG [r13_461_TrROS_Hall]” is higher in “folding stability dG unfold” value: 0.46 ± 0.27 kcal/mol for the first, 2.17 ± 0.12 kcal/mol for the second.

“SAGGSKIIITYDKEKNVITIKVEKNGKLLEITIEVKSKEDLEEALKKAEELAKELEKKGYKVEIIPSAGGSA [r2_118_TrROS_Hall]” and “SAGGSAGGKKIKIEIIYDKENNKLYIYVVDENTKKVYRYEFNKNGKLIKVEPVKEVKPGEVIPLSAGGSAGG [r6_148_TrROS_Hall]” are within error of each other in “folding stability dG unfold” value: 2.15 ± 0.2 kcal/mol for the first, 2.32 ± 0.22 kcal/mol for the second.

Compared with “SAGGSAGGSAMKYYVTITFTDPNNGNTTTEIKEVTTEEEVEKVVEELAPSSYASVKVSIKPKSAGGSAGGSA [r18_258_JUSTAS]”, “SAGGSAGGSAGGGWAEIEIKITIFVFDPGNMTLFMVTLEPRIEVPPVKRDPDNGKWKPDSAGGSAGGSAGGS [r10_815_TrROS]” is higher in “folding stability dG unfold” value: 0.892 ± 0.2 kcal/mol for the first, 3.81 ± 0.42 kcal/mol for the second.

Going from “SAGGYKYKREKYRDPENGQPRERYKREPPPPPPPSISININAPPEMADKIADILQDLLPNMPVGINGSAGGS [r8_437_TrROS]” to “SAGNKIEIEPVNYEPMPNGYYRVTARVTIENPNNKKPWDIDVEAYYPMDPNGQPMNVDEIAKEAIKKIFSAG [r5_604_TrROS]”, the “folding stability dG unfold” value falls from 2.84 ± 0.21 kcal/mol to 1.07 ± 0.24 kcal/mol.

First: SAGGSAMIELEIKLPKEEAEKIAEELAKKLAEELGLEVKVVDVEIEYDPETDEVTIRVKIEVEPEPSAGGSA [r15_70_TrROS_Hall]
Second: SAGMVEITVEVKEDGTVIVTIPATSPEEALEVAEEVARELAKQFGAEHTEFVIEPVPDDTLVLLVPIKKSAG [r5_772_TrMRF]
The “folding stability dG unfold” value of the first is higher: 2.48 ± 0.24 kcal/mol for the first, 0.874 ± 0.23 kcal/mol for the second.

First: SAAVITLETENVTATSTLLEDGSVLVDVVEFYEDGYVSVVKAVIGPDGEIKVVERVVFPVPPPVPPPDASAG [r14_42_TrMRF]
Second: TTKTYTTPVIKKMTVTFDKTEGNEATLTITATLPDGTPVTLPFPLTLETGKLDPAVVEAAIKAAVATAIAQS [r1_124_JUSTAS]
The “folding stability dG unfold” value of the first is higher: 2.36 ± 0.18 kcal/mol for the first, 1.23 ± 0.2 kcal/mol for the second.

Going from “SAGGSAGGSAGMIDIKFEKIEGSSEYRATLTRPGGEVVPVLFSSSESAEEAKERAIELLESAGGSAGGSAGG [r17_161_JUSTAS]” to “SAGDWYIVIKITIYHPNKREREFPIVFDWKDGKIEIAPEFLQNIAEELGLPPNMKIEIEIVEIMPPNDSAGG [r19_287_TrROS]”, the “folding stability dG unfold” value rises from 1.15 ± 0.12 kcal/mol to 2.43 ± 0.55 kcal/mol.

“SAGGSAGGSEIPDIEITIDSIEFFPDGTVRITATVRFPGGGTAKITLTLPAPPAEYEPPSDLLSAGGSAGGS [r12_558_TrMRF]” and “SMPPGERYRMTMKFPDGKKITLEMNPGGWWRIKVENKNGKPQHQQPIPPDNPQELAENFGIDKVTDVEPVSA [r9_1107_TrROS]” are within error of each other in “folding stability dG unfold” value: 1.39 ± 0.5 kcal/mol for the first, 2.05 ± 0.17 kcal/mol for the second.

Going from “SAGGSAGGSAGEWVTIPIKNPEKLKDLPGLPIKDVEPNGGKPTITFNGDDPERIKEALNDSAGGSAGGSAGG [r11_65_TrROS]” to “SAGGSAGGSKKKITVKIEEVKLNPETGKLVLVKIKLPDGKELVFKTPEEIENLPGAEFEVYELSAGGSAGGS [r20_192_TrROS_Hall]”, the “folding stability dG unfold” value rises from 0.682 ± 0.3 kcal/mol to 1.45 ± 0.27 kcal/mol.
